We go through five molecules from doi:10.1101/2025.01.15.633165, “The mechanism of DRB7.2:DRB4 mediated sequestering of endogenous inverted-repeat dsRNA precursors in plants” (bioRxiv, 2025).

The term stoichiometry N denotes the number of molecules, sites or subunits per partner or assembly.

The labels stand for the following.
B1: DRB4 (1-355) (natural protein, A. thaliana, UniProt Q8H1D4 1-355, looked up)
chain: MDHVYKGQLQAYALQHNLELPVYANEREGPPHAPRFRCNVTFCGQTFQSSEFFPTLKSAEHAAAKIAVASLTPQSPEGIDVAYKNLLQEIAQKESSLLPFYATATSGPSHAPTFTSTVEFAGKVFSGEEAKTKKLAEMSAAKVAFMSIKNGNSNQTGSPTLPSERQEDVNSNVKSSPQEIHSQPSSKVVMTPDTPSKGIKVNEDEFPDLHDAPASNAKEINVALNEPENPTNDGTLSALTTDGMKMNIASSSLPIPHNPTNVITLNAPAANGIKRNIAACSSWMPQNPTNDGSETSSCVVDESEKKKLIMGTGHLSIPTGQHVVCRPWNPEITLPQDAEMLFRDDKFIAYRLVKP
notes: DRB4, A. thaliana, UniProt Q8H1D4, residues 1-355; source: cloned, expressed and purified as described (Chiliveri et al, 2017)
B2: DRB7.2 (M1-V190) (natural protein, A. thaliana, UniProt F4JHB3 1-190, looked up)
chain: MDLPPPESSSNPISSFSVAQKRMLLQRCESKFKIRKLNDTVEEDNVTQMEPNFTLENTLVSEPEADLRPHTTEPTTEEETQRSSAKSQLYNLCSVRHWKAPLYEYIAEGPCHMKIFTGKVTVEMKEDSRITVLECFGNPQYKKKIAAEQAAEAALWYLKNVGYTLQTEKASGRKGRSKPISKMMVTGEPV
notes: DRB7.2, A. thaliana, UniProt F4JHB3, residues M1-V190; Perdeuterated and U-15N labelled for NMR; Further cloning details are in Paturi & Deshmukh, 2023; also called full-length DRB7.2

Series [1] deals with B2. Briefly: ITC; DRB4 constructs (200 μM, syringe) injected into DRB7.2 or DRB7.2M (20 μM, cell); 25 °C; 50 mM potassium phosphate pH 7.0, 50 mM NaCl, 50 mM Na2SO4, 2 mM DTT. The settings on record: both partners purified. In general terms: Isothermal titration calorimetry measures the heat released or taken up as one component is titrated into another.
Series [2] concerns the target B1. The series is described as above. Particulars: both partners purified.
Series [3] addresses T1, DRB4C (154-355) (A. thaliana, UniProt Q8H1D4 154-355).
T1 construct: DRB4, A. thaliana, UniProt Q8H1D4, residues 154-355 (flexible segment N154-S293 and domain D3 E294-P355); source: cloned, expressed and purified as described (Chiliveri et al, 2017)
T1 sequence (looked up): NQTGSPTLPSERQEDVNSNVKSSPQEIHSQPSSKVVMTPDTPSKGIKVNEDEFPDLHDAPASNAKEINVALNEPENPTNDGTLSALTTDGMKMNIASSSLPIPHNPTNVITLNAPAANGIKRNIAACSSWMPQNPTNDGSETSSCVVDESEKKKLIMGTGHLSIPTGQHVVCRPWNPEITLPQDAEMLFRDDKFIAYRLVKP
The series is described as above. The settings on record: both partners purified.

For series [4], the target named is T2, DRB4D3 (Arabidopsis thaliana, UniProt Q8H1D4 294-355).
T2 sequence: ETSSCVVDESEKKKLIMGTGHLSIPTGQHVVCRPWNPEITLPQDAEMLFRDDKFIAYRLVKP
Description: EMSA; EMSA: 50 mM potassium phosphate pH 7.0, 50 mM NaCl, 50 mM Na2SO4, 2 mM DTT; 40 bp RNA at 750 nM, 30 min, room temperature; 32P 80 bp dsRNA at 1 nM, 1 h, 4 C. The settings on record: protein: recombinant; Methods text mentions 1 nt 3' overhang. A general note: In EMSA bound probe runs differently from free probe, usually more slowly.

Series [5] has as its target T3, DRB7.2 (Arabidopsis thaliana, UniProt F4JHB3 1-190).
T3 sequence: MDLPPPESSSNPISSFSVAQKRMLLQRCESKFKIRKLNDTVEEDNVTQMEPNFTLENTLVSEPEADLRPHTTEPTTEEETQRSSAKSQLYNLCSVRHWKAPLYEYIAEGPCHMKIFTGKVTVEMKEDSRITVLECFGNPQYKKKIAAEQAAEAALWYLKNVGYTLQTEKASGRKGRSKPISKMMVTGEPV
Briefly: EMSA; saturation at ~2 uM; 1 nM RNA, 4 C; EMSA: 50 mM potassium phosphate pH 7.0, 50 mM NaCl, 50 mM Na2SO4, 2 mM DTT; 40 bp RNA at 750 nM, 30 min, room temperature; 32P 80 bp dsRNA at 1 nM, 1 h, 4 C. Particulars: protein: recombinant; tags: His6 tag with TEV cleavage (pETtrx-1b); Methods text mentions 1 nt 3' overhang.

Series [6] has as its target T4, DRB7.2M (Arabidopsis thaliana, UniProt F4JHB3 71-162).
T4 sequence: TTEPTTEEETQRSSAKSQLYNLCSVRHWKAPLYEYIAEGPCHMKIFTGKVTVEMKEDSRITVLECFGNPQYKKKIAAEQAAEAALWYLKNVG
Described as above. The settings on record: protein: recombinant; tags: His6 tag with TEV cleavage (pETtrx-1b); Methods text mentions 1 nt 3' overhang.

Series [7] addresses T5, DRB7.2M;DRB4D3 (Arabidopsis thaliana;Arabidopsis …, UniProt F4JHB3;Q8H1D4 71-162;294-355, |).
T5 sequence 1: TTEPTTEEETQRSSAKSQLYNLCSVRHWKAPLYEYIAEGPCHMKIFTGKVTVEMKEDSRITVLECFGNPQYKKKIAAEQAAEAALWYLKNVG
T5 sequence 2: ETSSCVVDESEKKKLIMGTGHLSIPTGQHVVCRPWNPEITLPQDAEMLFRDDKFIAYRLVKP
Description: EMSA; saturation at ~2 uM; 1 nM RNA, 4 C; ternary complex also in Fig. S11D; EMSA: 50 mM potassium phosphate pH 7.0, 50 mM NaCl, 50 mM Na2SO4, 2 mM DTT; 40 bp RNA at 750 nM, 30 min, room temperature; 32P 80 bp dsRNA at 1 nM, 1 h, 4 C. Particulars: protein: recombinant;recombinant; tags: His6 tag with TEV cleavage (pETtrx-1b);; copies: 1;1; Methods text mentions 1 nt 3' overhang.

For series [8], the target named is T6, DRB7.2M (T71-G162) (A. thaliana, UniProt F4JHB3 71-162).
T6 construct: DRB7.2, A. thaliana, UniProt F4JHB3, residues T71-G162 (dsRBD S84-G162 with the N-terminal flanking residues T71-S83); Isotope labelled (15N, 13C, 2H) or perdeuterated for NMR; Further cloning details are in Paturi & Deshmukh, 2023; also called dsRBD region of DRB7.2; DRB7.2 dsRBD
T6 sequence (looked up): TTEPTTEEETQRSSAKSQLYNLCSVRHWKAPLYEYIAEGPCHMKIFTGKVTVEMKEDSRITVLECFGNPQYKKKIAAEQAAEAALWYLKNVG
Description: MALDI-TOF MS; samples after SEC; 0.5 mg/mL, 2 mg/mL and 5 mg/mL. Particulars: both partners purified.

In series [9] the target is T6, DRB7.2M (T71-G162). Description: ITC; DRB4D3 and the preformed complex of DRB7.2M:80 bp dsRNA; one site binding model. The settings on record: both partners purified.
For series [10], the target named is T6, DRB7.2M (T71-G162). Briefly: ITC; DRB4 constructs (200 μM, syringe) injected into DRB7.2 or DRB7.2M (20 μM, cell); 25 °C; 50 mM potassium phosphate pH 7.0, 50 mM NaCl, 50 mM Na2SO4, 2 mM DTT. The settings on record: both partners purified.
Series [11] concerns the target T7, DRB7.2N (Arabidopsis thaliana, UniProt F4JHB3 1-81).
T7 sequence: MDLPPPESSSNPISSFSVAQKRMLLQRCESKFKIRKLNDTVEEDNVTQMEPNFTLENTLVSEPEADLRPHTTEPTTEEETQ
Briefly: EMSA; 20 uM protein, 750 nM RNA; EMSA: 50 mM potassium phosphate pH 7.0, 50 mM NaCl, 50 mM Na2SO4, 2 mM DTT; 40 bp RNA at 750 nM, 30 min, room temperature; 32P 80 bp dsRNA at 1 nM, 1 h, 4 C. Particulars: protein: recombinant, tags: His6 (pET28a), label: none (SYBR Gold stain), 1 nt 3' overhang (C) on complementary strand.

For series [12], the target named is T8, DRB7.2;DRB4 (Arabidopsis thaliana;Arabidopsis …, UniProt F4JHB3;Q8H1D4 1-190;1-355, |).
T8 sequence 1: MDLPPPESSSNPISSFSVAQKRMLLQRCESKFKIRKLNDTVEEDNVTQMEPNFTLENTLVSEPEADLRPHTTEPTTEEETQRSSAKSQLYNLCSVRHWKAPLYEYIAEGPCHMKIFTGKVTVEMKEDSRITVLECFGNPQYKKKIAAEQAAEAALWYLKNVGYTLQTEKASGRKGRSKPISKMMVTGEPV
T8 sequence 2: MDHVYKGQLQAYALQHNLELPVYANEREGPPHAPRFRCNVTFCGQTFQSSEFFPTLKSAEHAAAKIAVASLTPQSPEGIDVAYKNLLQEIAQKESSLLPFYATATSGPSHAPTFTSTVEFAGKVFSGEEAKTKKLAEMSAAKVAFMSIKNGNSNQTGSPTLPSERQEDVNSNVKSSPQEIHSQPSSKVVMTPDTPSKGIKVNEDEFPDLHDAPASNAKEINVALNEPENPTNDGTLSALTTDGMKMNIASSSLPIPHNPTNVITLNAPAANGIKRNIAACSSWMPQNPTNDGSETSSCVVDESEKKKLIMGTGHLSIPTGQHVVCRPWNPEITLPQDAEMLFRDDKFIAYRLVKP
Description: EMSA; apparent Kd; Hill 2.05±0.65; EMSA: 50 mM potassium phosphate pH 7.0, 50 mM NaCl, 50 mM Na2SO4, 2 mM DTT; 40 bp RNA at 750 nM, 30 min, room temperature; 32P 80 bp dsRNA at 1 nM, 1 h, 4 C. The settings on record: protein: recombinant;recombinant, tags: His6 tag with TEV cleavage (pETtrx-1b);, label: none (SYBR Gold stain), 1 nt 3' overhang (C) on complementary strand.

Series [13] concerns the target T9, DRB4 (Arabidopsis thaliana, UniProt Q8H1D4 1-355).
T9 sequence: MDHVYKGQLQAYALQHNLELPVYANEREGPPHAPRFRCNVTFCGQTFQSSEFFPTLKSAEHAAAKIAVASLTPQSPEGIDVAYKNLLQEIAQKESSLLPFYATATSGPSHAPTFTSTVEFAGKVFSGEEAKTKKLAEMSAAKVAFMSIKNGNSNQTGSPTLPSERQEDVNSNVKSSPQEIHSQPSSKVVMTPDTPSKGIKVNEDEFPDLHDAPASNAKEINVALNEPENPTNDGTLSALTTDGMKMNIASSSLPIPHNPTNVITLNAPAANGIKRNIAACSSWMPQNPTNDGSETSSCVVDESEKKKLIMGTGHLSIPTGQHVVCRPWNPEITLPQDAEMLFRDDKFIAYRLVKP
Briefly: EMSA; apparent Kd; Hill 2.44±0.45; EMSA: 50 mM potassium phosphate pH 7.0, 50 mM NaCl, 50 mM Na2SO4, 2 mM DTT; 40 bp RNA at 750 nM, 30 min, room temperature; 32P 80 bp dsRNA at 1 nM, 1 h, 4 C. Particulars: protein: recombinant, label: none (SYBR Gold stain), 1 nt 3' overhang (C) on complementary strand.

The target in series [14] is T3, DRB7.2. Briefly: EMSA; apparent Kd; Hill 2.68±0.77; EMSA: 50 mM potassium phosphate pH 7.0, 50 mM NaCl, 50 mM Na2SO4, 2 mM DTT; 40 bp RNA at 750 nM, 30 min, room temperature; 32P 80 bp dsRNA at 1 nM, 1 h, 4 C. The settings on record: protein: recombinant, tags: His6 tag with TEV cleavage (pETtrx-1b), label: none (SYBR Gold stain), 1 nt 3' overhang (C) on complementary strand.

In series [15] the target is T2, DRB4D3. Briefly: EMSA; 20 uM protein, 750 nM RNA; also higher concentrations; EMSA: 50 mM potassium phosphate pH 7.0, 50 mM NaCl, 50 mM Na2SO4, 2 mM DTT; 40 bp RNA at 750 nM, 30 min, room temperature; 32P 80 bp dsRNA at 1 nM, 1 h, 4 C. Particulars: protein: recombinant, label: none (SYBR Gold stain), 1 nt 3' overhang (C) on complementary strand.

“And” between values parts separate entries of the source, which are not always exact repeats. Equal entries are not always repeated.

For B1, the “stoichiometry N” value in series [1] is 0.8.
On to B2, for which the results for the Kd in series [2] and in series [3] were 3.1 ± 1.5 nM and 2.8 ± 1.6 nM, respectively.

B3: 80 bp dsRNA (dsRNA)
RNA 1: GGGUGCUGUUUCUCGUGUUCGUGUUCGUUUCUCUUCUCUUGUCCUUGUUCUGUUCUCCUUUGUUCGUUCCUGUUCCCCUU
RNA 2: AAGGGGAACAGGAACGAACAAAGGAGAACAGAACAAGGACAAGAGAAGAGAAACGAACACGAACACGAGAAACAGCACCC
For B3, the binding result in series [4] is “no binding”; in series [5], “binds”; in [6], “binds”; in series [7], “binds”.

B4: DRB4D3 (294-355) (domain or fragment, A. thaliana, UniProt Q8H1D4 294-355, looked up)
chain: ETSSCVVDESEKKKLIMGTGHLSIPTGQHVVCRPWNPEITLPQDAEMLFRDDKFIAYRLVKP
notes: DRB4, A. thaliana, UniProt Q8H1D4, residues 294-355 (E294-P355); Isotope labelled (15N, 13C, 2H) or perdeuterated for NMR; source: cloned, expressed and purified as described (Chiliveri et al, 2017)
On to B4, for which the “stoichiometry N” value amounted to 1 in series [8], 0.81 in series [9] and 0.95 in series [10]. Moreover, the Kd was 9.43 nM and ~9.5 nM in series [9]; 2.2 ± 1.2 nM in series [1]; 2.84 ± 1.15 nM in [10].

B5: 40 bp RNA (pre-siRNA) (dsRNA)
RNA 1: AACAAGCGAAUGAGUCAUUCAUCCUAAGUCUGCAUAAAGU
RNA 2: ACUUUAUGCAGACUUAGGAUGAAUGACUCAUUCGCUUGUUC
modifications: 5'-phosphate on guide strand
For B5, the binding result in series [11] and in series [15] was “no binding” in each case. Besides, the results for the Kd in series [12], in series [13] and in [14] were 1020 ± 170 nM, 3.6 ± 0.31 µM and 2280 ± 270 nM, respectively.
